Values quoted from earlier work, collected in paper PMC3012698, “Characterization of a Novel Interaction between Bcl-2 Members Diva and Harakiri” (PLoS ONE, 2010).
Read-outs that look alike come from different tables or passages of the source. Values belong to the substance of their own block, whether it stands above or below them.

How the values were obtained:
Mcl-1 [1] = biological target: Mcl-1 (UniProt Q07820)
Bcl-2 (Homo sapiens) [2] = biological target: Bcl-2 (Homo sapiens) (UniProt P10415)
Bcl-2 (Homo sapiens), sequence (P10415 whole entry): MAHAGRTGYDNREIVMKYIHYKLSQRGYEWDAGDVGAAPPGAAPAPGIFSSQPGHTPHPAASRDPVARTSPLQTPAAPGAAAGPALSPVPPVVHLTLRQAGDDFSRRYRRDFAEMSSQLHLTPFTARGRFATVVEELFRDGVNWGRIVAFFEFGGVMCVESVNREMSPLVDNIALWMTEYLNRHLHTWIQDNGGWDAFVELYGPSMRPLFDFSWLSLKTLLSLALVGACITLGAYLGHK

Mcl-1 [3] = biological target: Mcl-1 (UniProt Q07820); remark: listed apart in the source
BFL-1 (Homo sapiens) [4] = biological target: BFL-1 (Homo sapiens) (UniProt Q16548)
BFL-1 (Homo sapiens), sequence (Q16548 whole entry): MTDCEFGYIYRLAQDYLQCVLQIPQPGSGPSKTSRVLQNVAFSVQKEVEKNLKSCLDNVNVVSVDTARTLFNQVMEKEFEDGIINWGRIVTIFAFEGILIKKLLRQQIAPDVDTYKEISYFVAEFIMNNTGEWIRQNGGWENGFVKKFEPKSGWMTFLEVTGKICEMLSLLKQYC

BFL-1 (Homo sapiens) [5] = biological target: BFL-1 (Homo sapiens) (UniProt Q16548); remark: listed apart in the source
Bcl-2 (Homo sapiens) [6] = biological target: Bcl-2 (Homo sapiens) (UniProt P10415); remark: listed apart in the source
Bcl-w (Homo sapiens) = Bcl-w (Homo sapiens) (UniProt Q92843)
Bcl-w (Homo sapiens), sequence (Q92843 2-193): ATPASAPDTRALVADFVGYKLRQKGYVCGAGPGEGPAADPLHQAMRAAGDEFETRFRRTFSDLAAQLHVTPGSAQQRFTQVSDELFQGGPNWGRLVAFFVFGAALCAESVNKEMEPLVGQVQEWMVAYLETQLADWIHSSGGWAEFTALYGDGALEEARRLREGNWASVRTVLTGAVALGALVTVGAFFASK

Mcl-1, sequence (Q07820 whole entry): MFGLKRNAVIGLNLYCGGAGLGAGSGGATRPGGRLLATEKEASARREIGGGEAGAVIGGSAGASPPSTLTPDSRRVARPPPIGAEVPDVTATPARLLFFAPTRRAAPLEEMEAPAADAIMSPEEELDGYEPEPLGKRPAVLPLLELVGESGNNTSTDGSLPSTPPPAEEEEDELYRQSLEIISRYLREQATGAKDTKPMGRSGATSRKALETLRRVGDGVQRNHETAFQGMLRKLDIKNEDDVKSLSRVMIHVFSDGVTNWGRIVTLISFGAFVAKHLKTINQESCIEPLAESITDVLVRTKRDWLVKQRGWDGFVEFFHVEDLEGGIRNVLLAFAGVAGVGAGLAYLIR
Noxa BH3, sequence (Q13794 19-43): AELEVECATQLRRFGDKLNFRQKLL
Bik BH3, sequence (Q13323 51-75): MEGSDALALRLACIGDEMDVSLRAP

- Kd (Mcl-1 [1]): 0.025 µM
- Kd (Bcl-2 (Homo sapiens) [2]): > 2.5 µM
Substance: Noxa BH3 (from UniProt Q13794)

- Kd (Mcl-1 [3]): 0.109 µM
- Kd (BFL-1 (Homo sapiens) [4]): > 2.5 µM
Substance: Bik BH3 (from UniProt Q13323)

- Kd (BFL-1 (Homo sapiens) [5]): > 2.5 µM
- Kd (Bcl-2 (Homo sapiens) [6]): > 2.5 µM
- Kd (Bcl-w (Homo sapiens)): > 2.5 µM
Substance: Harakiri BH3 (from UniProt O00198)
